# From US20240294632A1 (XL PROTEIN, published 2024)
# T1: PAS #1(600)-Leptin
# T1 chain: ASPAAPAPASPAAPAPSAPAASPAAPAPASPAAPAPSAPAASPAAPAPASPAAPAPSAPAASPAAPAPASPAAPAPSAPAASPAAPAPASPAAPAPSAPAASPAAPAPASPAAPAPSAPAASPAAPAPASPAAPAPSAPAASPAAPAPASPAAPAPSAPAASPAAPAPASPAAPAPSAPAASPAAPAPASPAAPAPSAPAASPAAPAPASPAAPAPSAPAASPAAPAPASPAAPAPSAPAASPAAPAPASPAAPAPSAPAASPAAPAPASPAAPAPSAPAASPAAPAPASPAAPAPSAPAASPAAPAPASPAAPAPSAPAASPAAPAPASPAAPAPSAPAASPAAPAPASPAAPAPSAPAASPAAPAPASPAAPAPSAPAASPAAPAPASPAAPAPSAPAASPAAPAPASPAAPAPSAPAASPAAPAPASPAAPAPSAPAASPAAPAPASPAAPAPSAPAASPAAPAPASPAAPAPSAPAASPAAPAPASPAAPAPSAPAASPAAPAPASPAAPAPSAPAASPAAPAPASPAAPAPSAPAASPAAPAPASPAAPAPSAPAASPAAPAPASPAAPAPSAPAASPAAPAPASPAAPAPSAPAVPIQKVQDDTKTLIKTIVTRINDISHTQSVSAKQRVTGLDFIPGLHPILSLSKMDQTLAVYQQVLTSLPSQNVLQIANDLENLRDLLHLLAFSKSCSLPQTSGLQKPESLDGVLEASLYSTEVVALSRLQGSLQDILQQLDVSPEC
# T2: P/A #1(600) polypeptide
# T2 chain: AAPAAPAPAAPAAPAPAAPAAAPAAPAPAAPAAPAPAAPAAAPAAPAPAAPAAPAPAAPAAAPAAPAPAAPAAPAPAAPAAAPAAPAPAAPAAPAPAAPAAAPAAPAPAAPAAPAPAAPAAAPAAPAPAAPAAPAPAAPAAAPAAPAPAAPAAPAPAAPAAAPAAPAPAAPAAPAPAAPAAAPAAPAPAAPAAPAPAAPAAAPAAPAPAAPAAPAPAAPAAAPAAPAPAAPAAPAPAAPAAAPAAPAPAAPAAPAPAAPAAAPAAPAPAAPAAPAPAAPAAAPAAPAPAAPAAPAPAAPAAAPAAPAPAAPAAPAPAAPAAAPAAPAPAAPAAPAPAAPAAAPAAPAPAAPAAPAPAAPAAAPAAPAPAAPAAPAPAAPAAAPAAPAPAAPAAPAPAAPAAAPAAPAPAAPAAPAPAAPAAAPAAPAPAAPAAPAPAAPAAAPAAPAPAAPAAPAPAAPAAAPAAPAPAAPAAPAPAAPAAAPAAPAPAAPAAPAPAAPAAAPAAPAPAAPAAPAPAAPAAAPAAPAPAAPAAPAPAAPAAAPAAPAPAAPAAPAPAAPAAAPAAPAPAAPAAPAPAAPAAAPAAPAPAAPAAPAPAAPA
# T3: P/A #1 sequence
# T3 construct: in sentences on specificity it stands for P/A #1 polypeptides in general
# T3 peptide: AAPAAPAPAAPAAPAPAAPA
# How the values were obtained:
# P/A #1(200)-IL1Ra [1] = target: T4, P/A #1(200)-IL1Ra; assay: SPR, biotinylated antigen on CAPture chip, Fab as analyte, 1:1 model
# T4 construct: PASylated fusion protein produced in E. coli; Biotinylated for the SPR measurements with Fabs
# PAS #1(200)-IL1Ra [2] = target: T5, PAS #1(200)-IL1Ra; assay: as above
# T5 construct: PASylated fusion protein produced in E. coli; Biotinylated for the SPR measurements with Fabs
# T5 sequence (chain, as listed by the source limits assumed): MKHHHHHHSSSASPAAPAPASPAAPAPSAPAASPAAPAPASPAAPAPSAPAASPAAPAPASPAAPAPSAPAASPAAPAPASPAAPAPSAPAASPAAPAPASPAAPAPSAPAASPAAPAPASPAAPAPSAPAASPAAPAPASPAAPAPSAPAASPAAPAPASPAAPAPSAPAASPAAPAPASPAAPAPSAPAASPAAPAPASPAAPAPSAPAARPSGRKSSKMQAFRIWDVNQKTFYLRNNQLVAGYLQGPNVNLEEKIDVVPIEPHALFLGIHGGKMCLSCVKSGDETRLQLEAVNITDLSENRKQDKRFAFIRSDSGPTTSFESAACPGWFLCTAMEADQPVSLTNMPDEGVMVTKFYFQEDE
# PAS #1(600)-Leptin [3] = target: T1, PAS #1(600)-Leptin; assay: ELISA, Fab titrated on PAS#1(600)-Leptin (x axis: Fab concentration)
# PAS #1(600)-Leptin [4] = target: T1, PAS #1(600)-Leptin; assay: ELISA, antigen coated, Fab titrated
# P/A #1(600) polypeptide = target: T2, P/A #1(600) polypeptide; assay: ELISA, antigen coated, Fab titrated
# P/A#1(600)-GMCSF = assay: ELISA, Fab titrated on P/A#1(600)-GMCSF (x axis: Fab concentration)
# Sequence of P/A#1(600)-GMCSF (fusion protein, as listed by the source): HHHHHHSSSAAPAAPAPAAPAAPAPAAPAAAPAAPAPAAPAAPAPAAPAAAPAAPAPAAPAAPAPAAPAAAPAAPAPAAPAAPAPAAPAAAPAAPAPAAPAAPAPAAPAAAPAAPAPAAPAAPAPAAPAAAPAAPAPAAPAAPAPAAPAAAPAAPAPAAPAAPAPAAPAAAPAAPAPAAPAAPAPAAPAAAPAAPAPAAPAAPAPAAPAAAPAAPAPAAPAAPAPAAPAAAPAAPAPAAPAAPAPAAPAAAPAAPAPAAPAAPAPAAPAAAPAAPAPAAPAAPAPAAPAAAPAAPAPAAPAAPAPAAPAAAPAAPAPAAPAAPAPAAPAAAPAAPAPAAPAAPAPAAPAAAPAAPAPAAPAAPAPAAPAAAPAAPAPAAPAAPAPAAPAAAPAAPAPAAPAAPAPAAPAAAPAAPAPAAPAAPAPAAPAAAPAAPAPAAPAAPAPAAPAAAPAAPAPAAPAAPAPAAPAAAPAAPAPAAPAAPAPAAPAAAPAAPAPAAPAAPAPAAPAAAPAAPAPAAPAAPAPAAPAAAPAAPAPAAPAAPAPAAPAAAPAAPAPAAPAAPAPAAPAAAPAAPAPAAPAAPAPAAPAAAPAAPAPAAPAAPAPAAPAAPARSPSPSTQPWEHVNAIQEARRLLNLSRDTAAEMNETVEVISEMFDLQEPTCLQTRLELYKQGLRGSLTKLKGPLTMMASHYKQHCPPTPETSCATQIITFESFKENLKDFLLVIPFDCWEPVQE
# IL1Ra-PAS#1(800) = assay: ELISA, Fab titrated on IL1Ra-PAS#1(800) (x axis: Fab concentration)
# Sequence of IL1Ra-PAS#1(800) (chain, as listed by the source): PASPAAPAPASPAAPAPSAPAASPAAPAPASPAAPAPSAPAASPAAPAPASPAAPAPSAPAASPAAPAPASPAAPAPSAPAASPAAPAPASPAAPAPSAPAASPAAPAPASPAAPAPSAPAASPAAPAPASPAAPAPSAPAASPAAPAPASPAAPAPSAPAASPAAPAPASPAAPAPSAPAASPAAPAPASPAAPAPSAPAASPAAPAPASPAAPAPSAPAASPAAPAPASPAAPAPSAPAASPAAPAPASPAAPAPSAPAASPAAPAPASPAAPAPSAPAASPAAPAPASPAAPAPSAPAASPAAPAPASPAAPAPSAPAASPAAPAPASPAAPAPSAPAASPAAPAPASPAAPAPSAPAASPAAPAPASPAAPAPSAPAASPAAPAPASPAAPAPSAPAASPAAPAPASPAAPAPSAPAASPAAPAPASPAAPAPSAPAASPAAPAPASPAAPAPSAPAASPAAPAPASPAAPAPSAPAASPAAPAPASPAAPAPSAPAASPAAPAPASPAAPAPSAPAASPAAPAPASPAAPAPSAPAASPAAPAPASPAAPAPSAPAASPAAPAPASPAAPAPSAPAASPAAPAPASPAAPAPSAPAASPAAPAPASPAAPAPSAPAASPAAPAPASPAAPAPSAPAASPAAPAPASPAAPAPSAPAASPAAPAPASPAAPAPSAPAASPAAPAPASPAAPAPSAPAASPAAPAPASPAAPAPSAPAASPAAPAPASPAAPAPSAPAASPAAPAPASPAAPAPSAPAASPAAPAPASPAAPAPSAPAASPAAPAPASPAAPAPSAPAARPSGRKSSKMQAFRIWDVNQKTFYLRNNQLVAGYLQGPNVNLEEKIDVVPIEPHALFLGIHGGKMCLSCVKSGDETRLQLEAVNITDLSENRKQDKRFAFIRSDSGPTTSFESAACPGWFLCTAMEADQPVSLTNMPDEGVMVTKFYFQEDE
# P/A #1(200)-IL1Ra [5] = target: T4, P/A #1(200)-IL1Ra; assay: SPR, MAb from hybridoma supernatant captured by anti-mouse antibody, antigen as analyte, bivalent analyte model
# PAS #1(200)-IL1Ra [6] = target: T5, PAS #1(200)-IL1Ra; assay: as above
# hu4D5-P/A #1(200) = target: T6, hu4D5-P/A #1(200); assay: MAb capture ELISA, hybridoma supernatant on anti-mouse IgG Fc, antigen titrated
# T6 construct: Detected with anti-human kappa light chain antibody in the capture ELISA
# IL1Ra (Kineret/Anakinra) = target: T7, IL1Ra (Kineret/Anakinra) (UniProt P18510 26-177); assay: western blot, hybridoma supernatant 1:2000
# T7 construct: Commercial drug product; also called non-PASylated protein version
# T7 sequence (P18510 26-177 limits assumed): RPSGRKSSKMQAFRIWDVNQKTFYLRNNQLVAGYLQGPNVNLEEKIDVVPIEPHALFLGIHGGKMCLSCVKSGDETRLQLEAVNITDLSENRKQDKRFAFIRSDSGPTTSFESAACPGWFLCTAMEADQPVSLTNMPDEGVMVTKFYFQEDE
# [7] = target: T8, recombinant Galectin-3 carrying a C173T mutation and a C-terminal Strep-tag II (Homo sapiens (Human), UniProt P17931 2-250); assay: SPR, PAS-Fab captured by MAb 1.1, Galectin-3 as analyte, single cycle kinetics, 1:1 Langmuir model
# T8 construct: the wording would also allow that it is the Strep-tag II alone
# T8 sequence (P17931 other isoform, or with tags, fused parts or gaps C173T C173T limits assumed): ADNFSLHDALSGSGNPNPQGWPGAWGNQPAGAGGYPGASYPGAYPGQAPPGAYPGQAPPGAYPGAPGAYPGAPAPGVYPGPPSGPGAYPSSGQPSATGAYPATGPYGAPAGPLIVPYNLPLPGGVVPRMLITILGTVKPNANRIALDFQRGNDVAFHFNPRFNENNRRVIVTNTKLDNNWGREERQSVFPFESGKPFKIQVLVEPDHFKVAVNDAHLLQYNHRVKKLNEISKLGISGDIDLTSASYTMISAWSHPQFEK
# PAS #1(600)-Leptin [8] = target: T1, PAS #1(600)-Leptin; assay: ELISA, Fab titrated on coated PAS#1(600)-Leptin
# P/A #1 sequence = target: T3, P/A #1 sequence; assay: ELISA and SPR with Fabs
# APSA(200)-TrxA = target: T9, APSA(200)-TrxA; assay: SPR, biotinylated antigen on CAPture chip, Fab as analyte, 1:1 model
# T9 construct: Biotinylated and immobilised on a biotin CAPture chip; also called thioredoxinA-APSA(200)
# APSA(200)-IL1Ra [9] = target: T10, APSA(200)-IL1Ra; assay: ELISA, antigen coated, Fab titrated
# T10 construct: Fusion protein produced in E. coli; Labelled with DIG-NHS in the MAb capture ELISA
# APSA(200)-IL1Ra [10] = target: T10, APSA(200)-IL1Ra; assay: MAb capture ELISA, hybridoma supernatant on anti-mouse IgG Fc, DIG-labelled antigen titrated
# APSA(200)-IL1Ra [11] = target: T10, APSA(200)-IL1Ra; assay: SPR, MAb from hybridoma supernatant captured by anti-mouse antibody, antigen as analyte, bivalent analyte model
# hu4D5-PAS #1(200) = target: T11, hu4D5-PAS #1(200); assay: MAb capture ELISA, hybridoma supernatant on anti-mouse IgG Fc, antigen titrated
# T11 construct: Detected with anti-human kappa light chain antibody in the capture ELISA
binder,measurement,setting,value
"Fab fragment of Anti-PA(S) MAb 2.1 (Fab, V domains shown, also called Anti-PA(S) MAb 2.1 Fab; anti-P/A #1 Fab) VH: QVTLKESGPGILQPSQTLSLTCSFSGFSLSTYDMGVGWIRQPSGKGLEWLANIWWNDNKYYNSALKSRLTISKDTSNNQVFLKISSVDATDTATYYCAQMRDNYGVWFAFWGQGTLVTVSA VL: DIVMSQSPSSLAVSVGEKVTMSCKSSQSLFYSNREKNYLAWYQQKPGQSPKLLIYWASTRESGVPDRFTGSGSGTDFTLTISNVKAEDLAVYYCQQYYNYPTFGAGTKLELKR",Kd,P/A #1(200)-IL1Ra [1],648 nM
same,Kd,PAS #1(200)-IL1Ra [2],4.4 nM
same,EC50 (read off the curve),PAS #1(600)-Leptin [3],~2 nM
same,Kd,PAS #1(600)-Leptin [4],2.2 nM
same,Kd,P/A #1(600) polypeptide,2 nM
same,EC50 (read off the curve),P/A#1(600)-GMCSF,~1 nM
same,EC50 (read off the curve),IL1Ra-PAS#1(800),~2 nM
"Anti-PA(S) MAb 2.2 (antibody, V domains shown, Mouse monoclonal IgG from hybridoma (culture supernatant); also called 3F3E2) VH: QVTLKESGPGILQPSQTLSLTCSFSGFSLNTYGMGVGWIRQPSGKGLEWLANIWWTDDKYYNSVLKSRLTISKDTFNNQVFLKISSVDTADTATYYCAQLAYHDNPWFAYWGQGTLVTVSA VL: DIVMSQSPSSLAVSVGEKVTLSCKSSQSLLYSNNQKNYLAWYQQKPGQSPKLLIYWASTRESGVPDRFTGSGSGTDFTLTISSVKAEDLAVYYCQQYYNYPTFGGGTKLEIKR",Kd,P/A #1(200)-IL1Ra [5],1.1 nM
same,Kd,PAS #1(200)-IL1Ra [6],22 nM
same,Kd,hu4D5-P/A #1(200),69 nM
same,binding result,IL1Ra (Kineret/Anakinra),no binding
"Fab fragment of Anti-PA(S) MAb 2.2 (Fab, V domains shown, also called Anti-PA(S) MAb 2.2 Fab; anti-P/A #1 MAb 2.2 Fab) VH: QVTLKESGPGILQPSQTLSLTCSFSGFSLNTYGMGVGWIRQPSGKGLEWLANIWWTDDKYYNSVLKSRLTISKDTFNNQVFLKISSVDTADTATYYCAQLAYHDNPWFAYWGQGTLVTVSA VL: DIVMSQSPSSLAVSVGEKVTLSCKSSQSLLYSNNQKNYLAWYQQKPGQSPKLLIYWASTRESGVPDRFTGSGSGTDFTLTISSVKAEDLAVYYCQQYYNYPTFGGGTKLEIKR",Kd,P/A #1(200)-IL1Ra [1],7000 nM
same,Kd,P/A #1(600) polypeptide,8 nM
"anti-Galectin-PAS(200) Fab fragment (Fab, also called PASylated humanized anti-Galectin Fab fragment; PAS-Fab) chain 1: QIQLVQSGAEVKKPGESLKISCKVSGYTFTDYAIHWVRQMPGKGLKWMGWINTYTGKPIYADDFKGQVIISLDKSINTAYLQWSSLKASDTAIYYCARGTMMASLDYWGQGTTVTVSSASTKGPSVFPLAPSSKSTSGGTAALGCLVKDYFPEPVTVSWNSGALTSGVHTFPAVLQSSGLYSLSSVVTVPSSSLGTQTYICNVNHKPSNTKVDKKVEPKSCHHHHHH chain 2: DVVMTQSPSSLSASVGDRVTITCKSSQSLVHSDGKTYLSWIQQKPGKAPKGLIYLVSKLDSGVPSRFSGSGSETDFTLTISSLQPEDSATYYCWQATHFPLTFGPGTKLEIKRTVAAPSVFIFPPSDEQLKSGTASVVCLLNNFYPREAKVQWKVDNALQSGNSQESVTEQDSKDSTYSLSSTLTLSKADYEKHKVYACEVTHQGLSSPVTKSFNRGECASPAAPAPASPAAPAPSAPAASPAAPAPASPAAPAPSAPAASPAAPAPASPAAPAPSAPAASPAAPAPASPAAPAPSAPAASPAAPAPASPAAPAPSAPAASPAAPAPASPAAPAPSAPAASPAAPAPASPAAPAPSAPAASPAAPAPASPAAPAPSAPAASPAAPAPASPAAPAPSAPAASPAAPAPASPAAPAPSAPAA",Kd,[7],0.0038 nM
same,koff,[7],3e-05 s⁻¹
same,kon,[7],7.9e+06 M⁻¹ s⁻¹
"Fab fragment of Anti-PA(S) MAb 1.1 (Fab, V domains shown, flanking restriction sites were introduced for subcloning; also called Anti-PA(S) MAb 1.1 Fab; anti-PAS #1 Fab) VH: QVQLKESGPGLVAPSQSLSITCTVSGFSLTGYGVNWVRQPPGKGLEWLGMIWGDGITDYNSALKSRLSISKDNSKSQVFLKMNSLQTDDTARYYCARDYYGRRYYAMDYWGQGTSVTVSS VL: DIVLTQSPASLAVSLGQRATISCRASKSVSSSGYNYMFWYQQKPGQPPKLLIYLASNLESGVPDRFWGSGSGTDFTLNIHPVEEEDAATYYCQHSRELPLTFGAGTKLELKR",Kd,PAS #1(200)-IL1Ra [2],8800 nM
same,EC50 (read off the curve),PAS #1(600)-Leptin [8],~10 nM
same,Kd,PAS #1(600)-Leptin [4],23 nM
same,binding result,P/A #1 sequence,no binding
"Fab fragment of Anti-PA(S) MAb 3.2 (Fab, V domains shown, also called Anti-PA(S) MAb 3.2 Fab; anti-APSA antibody fragment) VH: QVQLQQSGAELVRPGASVKLSCKALGYTFTDYEMFWVKQTPVHGLECIGTIHPGSGGTAYNQKFKGKATLTADKSSSTAYMELSSLTSEDSAVYYCTRNDRGSWGQGTTLTVSS VL: not shown",Kd,P/A #1(200)-IL1Ra [1],446 nM
same,Kd,APSA(200)-TrxA,137 nM
same,Kd,PAS #1(600)-Leptin [4],311 nM
same,Kd,P/A #1(600) polypeptide,48 nM
same,Kd,APSA(200)-IL1Ra [9],1.6 nM
"Anti-PA(S) MAb 3.2 (antibody, V domains shown, Mouse monoclonal IgG from hybridoma (culture supernatant)) VH: QVQLQQSGAELVRPGASVKLSCKALGYTFTDYEMFWVKQTPVHGLECIGTIHPGSGGTAYNQKFKGKATLTADKSSSTAYMELSSLTSEDSAVYYCTRNDRGSWGQGTTLTVSS VL: not shown",Kd,APSA(200)-IL1Ra [10],0.251 nM
same,Kd,P/A #1(200)-IL1Ra [5],20 nM
same,Kd,APSA(200)-IL1Ra [11],0.108 nM
same,Kd,hu4D5-PAS #1(200),294 nM
same,Kd,hu4D5-P/A #1(200),0.4 nM
same,binding result,IL1Ra (Kineret/Anakinra),no binding
